B1: IKZF1 (parent)
chain: RDPFECNMCGYHSQDRYEFSSHIT

Variants of: B1
Assay: protein stability index of a GFP-peptide fusion (GPS, HEK-293T) (PSI 1-6); higher = more stable
Settings: c terminus: a fixed tail appended
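Note: lentivirally expressed fusions sorted by FACS into six bins by GFP to DsRed ratio, PSI derived from sequencing read proportions per bin multiplied by bin number.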

Point of comparison: RDPFECNMCGYHSQDRYEFSSHIS, protein stability index 1.75. Against it:
- RDTFECNMCGYHSQDRYEFSSHIT — higher, 2.02
- RDPFECNMCGYTSQDRYEFSSHIT — higher, 2.53
- RDPFDCNMCGYHSQDRYEFSSHIT — higher, 2.7
- RDPFECNMCGYHSQDRYEFSSHHT — higher, 2.57
- EDPFECNMCGYHSQDRYEFSSHIT — higher, 2.67
- RDPFECWMCGYHSQDRYEFSSHIT — higher, 1.93
- RDPAECNMCGYHSQDRYEFSSHIT — higher, 2.44
- RDPFECNMCGYHSFDRYEFSSHIT — lower, 1.47
- RDPFECNMCGYHSQDHYEFSSHIT — higher, 2.51
- RDPFECNMCGYHSQDRYEYSSHIT — higher, 2.47
- RDPFEGNMCGYHSQDRYEFSSHIT — higher, 2.3
- RDPFECNMCGGHSQDRYEFSSHIT — higher, 3.49
- RDPFECNMCGYHSQDRYEASSHIT — higher, 2.59
- RDPFECNKCGYHSQDRYEFSSHIT — higher, 2.52
- RDPFECNMCGYHSQDRYEFMSHIT — higher, 2.06
- RDPFECNMCGYHSQDRDEFSSHIT — higher, 3.1
- RDPFECNMCGYHSQDRYGFSSHIT — higher, 2.63
- RDPFECNMCGYHSQDRAEFSSHIT — higher, 2.28
- RDPFECNPCGYHSQDRYEFSSHIT — higher, 2.64
- RDPEECNMCGYHSQDRYEFSSHIT — higher, 2.66
- RDPFECNMCGYHSQLRYEFSSHIT — higher, 1.81
- RDPFENNMCGYHSQDRYEFSSHIT — higher, 2.56
- RDPFECNMCGYHSQDRYSFSSHIT — higher, 2.11
- RDPTECNMCGYHSQDRYEFSSHIT — higher, 2.97
- RDPFEVNMCGYHSQDRYEFSSHIT — higher, 2.5
- RDPFEPNMCGYHSQDRYEFSSHIT — higher, 2.23
- RDPFECNMCGYHSQDREEFSSHIT — higher, 3
- RDPPECNMCGYHSQDRYEFSSHIT — higher, 2.54
- RNPFECNMCGYHSQDRYEFSSHIT — higher, 1.96
- RDPFEINMCGYHSQDRYEFSSHIT — higher, 2.14
- RDPFECNMCGYHSQDDYEFSSHIT — higher, 2.85
- RDPFECNMCGYHSQDRCEFSSHIT — higher, 2.38
- RDPFECNMCGYHSQDRYEFSRHIT — higher, 1.84
- RDPFECNMCGYHSQDRYEGSSHIT — higher, 3.13
- RDPFECNMCGYHSLDRYEFSSHIT — higher, 1.93
- RDPFECNMCGYHSQDGYEFSSHIT — higher, 2.56
- RDPFECNRCGYHSQDRYEFSSHIT — higher, 2.02
- RDPFECNMDGYHSQDRYEFSSHIT — higher, 3.83
- SDPFECNMCGYHSQDRYEFSSHIT — higher, 2.1
- RDPFECNMCGYHSQDRYENSSHIT — higher, 3.27
- RDPFECNMCGYHLQDRYEFSSHIT — the same, 1.75
- RDPFECNMCGYHSQVRYEFSSHIT — higher, 1.8
- RDPFECNMCGYHSQDRLEFSSHIT — higher, 2.22
- RDPFECNMCGYHSQDRYEFSLHIT — higher, 2.03
- RDPFECNMCGYHSHDRYEFSSHIT — higher, 2.22
- RDPFECHMCGYHSQDRYEFSSHIT — higher, 2.25
- RDPFECNMCGYHSQMRYEFSSHIT — higher, 2.02
- RDKFECNMCGYHSQDRYEFSSHIT — higher, 2.04
- RDMFECNMCGYHSQDRYEFSSHIT — higher, 1.76
- RDPFECNTCGYHSQDRYEFSSHIT — higher, 2.39
- RDPHECNMCGYHSQDRYEFSSHIT — higher, 2.47
- RDPFECNMCGYHSQDRYEFSSAIT — higher, 2.15
- RDPFECNMCGYHSQDRYEFSSRIT — lower, 1.58
- RDPFECNMCGYHSQNRYEFSSHIT — higher, 2.17
- RDPFEANMCGYHSQDRYEFSSHIT — higher, 2.5
- RHPFECNMCGYHSQDRYEFSSHIT — the same, 1.75
- RDPFECNNCGYHSQDRYEFSSHIT — higher, 2.54
- RDPCECNMCGYHSQDRYEFSSHIT — higher, 2.31
- RDPFECCMCGYHSQDRYEFSSHIT — higher, 1.89
- RWPFECNMCGYHSQDRYEFSSHIT — higher, 1.92
- TDPFECNMCGYHSQDRYEFSSHIT — higher, 2.23
- RDPFECNMCIYHSQDRYEFSSHIT — higher, 1.92
- RDPFECNMSGYHSQDRYEFSSHIT — higher, 3.42
- RDPFECNMCTYHSQDRYEFSSHIT — higher, 2.69
- RDPFECNMCGYHSQDRYEFHSHIT — higher, 2.21
- RVPFECNMCGYHSQDRYEFSSHIT — higher, 2.21
- RDPFECNMCGYHSQDRYEFSSHII — higher, 2.28
- RDPFECNMCGYHKQDRYEFSSHIT — higher, 2.1
- RDPFECNMCGYHSMDRYEFSSHIT — higher, 1.86
- RDPFECNMCGYHSQDRYEESSHIT — higher, 3.35
- RDPFECNMCGYHSQDVYEFSSHIT — higher, 2.42
- RDPFECNMCGYHMQDRYEFSSHIT — lower, 1.66
- RDLFECNMCGYHSQDRYEFSSHIT — lower, 1.68
- RDPFECNMCGMHSQDRYEFSSHIT — higher, 2.59
- RDPFECNMCGYHSQDRYEFSSHIG — lower, 1.74
- RDPFECNMCGYHSVDRYEFSSHIT — higher, 1.85
- RDPFECKMCGYHSQDRYEFSSHIT — higher, 2.37
- RTPFECNMCGYHSQDRYEFSSHIT — higher, 1.82
- RDPFECNMCGYVSQDRYEFSSHIT — the same, 1.75
- RDPFECNMCGYHSQDRYEFSSHWT — higher, 1.77
- RDPFECNMCGYHVQDRYEFSSHIT — higher, 1.91
- RDPFECNMCGYHSQDRVEFSSHIT — higher, 1.76
- RDPFECNMCGLHSQDRYEFSSHIT — higher, 2.65
- RDPFECNMCLYHSQDRYEFSSHIT — higher, 2.08
- RDPFECNMCGYLSQDRYEFSSHIT — higher, 2.69
- RDPFECNMCGYHSQFRYEFSSHIT — higher, 1.76
- RDPFCCNMCGYHSQDRYEFSSHIT — higher, 2.11
- RDPFECNMCGYHSQDRYEFSSHAT — higher, 2.23
- RDPFEFNMCGYHSQDRYEFSSHIT — higher, 1.96
- RDPFYCNMCGYHSQDRYEFSSHIT — higher, 1.85
- RDPFECNMCWYHSQDRYEFSSHIT — lower, 1.73
- RDPFSCNMCGYHSQDRYEFSSHIT — lower, 1.33
- RDPFECNMCGYHSQDRYECSSHIT — higher, 2.39
